# Assay results taken from US20220040297A1 (Chugai, published 2022).
# B1: GLS3000 N53V (antibody, name in Kabat numbering, V domains shown)
# VH: QVQLVESGGGVVQPGRSLRLSCAASGFTFSNAWMHWVRQAPGKGLEWVAQIKAKSNNYATYYAESVKGRFTISRDDSKNSLYLQMNSLKTEDTAVYYCRYVHYGAYYGVDAWGQGTTVTVSS
# VL: DIVMTQSPLSLPVTPGEPASISCRSSQSLVHSNRNTYLHWYQQKPGQAPRLLIYKVSVRFSGVPDRFSGSGSGTDFTLKISRVEAEDVGVYYCGQGTQVPYTFGQGTKLEIK
# notes: one-arm format as m2
# B2: GLS3000 Q27P (antibody, name in Kabat numbering, V domains shown)
# VH: QVQLVESGGGVVQPGRSLRLSCAASGFTFSNAWMHWVRQAPGKGLEWVAQIKAKSNNYATYYAESVKGRFTISRDDSKNSLYLQMNSLKTEDTAVYYCRYVHYGAYYGVDAWGQGTTVTVSS
# VL: DIVMTQSPLSLPVTPGEPASISCRSSPSLVHSNRNTYLHWYQQKPGQAPRLLIYKVSNRFSGVPDRFSGSGSGTDFTLKISRVEAEDVGVYYCGQGTQVPYTFGQGTKLEIK
# notes: one-arm format as m2
# B3: GLS3000 Q27L (antibody, name in Kabat numbering, V domains shown)
# VH: QVQLVESGGGVVQPGRSLRLSCAASGFTFSNAWMHWVRQAPGKGLEWVAQIKAKSNNYATYYAESVKGRFTISRDDSKNSLYLQMNSLKTEDTAVYYCRYVHYGAYYGVDAWGQGTTVTVSS
# VL: DIVMTQSPLSLPVTPGEPASISCRSSLSLVHSNRNTYLHWYQQKPGQAPRLLIYKVSNRFSGVPDRFSGSGSGTDFTLKISRVEAEDVGVYYCGQGTQVPYTFGQGTKLEIK
# notes: one-arm format as m2
# B4: GLS3000 Q27E (antibody, name in Kabat numbering, V domains shown)
# VH: QVQLVESGGGVVQPGRSLRLSCAASGFTFSNAWMHWVRQAPGKGLEWVAQIKAKSNNYATYYAESVKGRFTISRDDSKNSLYLQMNSLKTEDTAVYYCRYVHYGAYYGVDAWGQGTTVTVSS
# VL: DIVMTQSPLSLPVTPGEPASISCRSSESLVHSNRNTYLHWYQQKPGQAPRLLIYKVSNRFSGVPDRFSGSGSGTDFTLKISRVEAEDVGVYYCGQGTQVPYTFGQGTKLEIK
# notes: one-arm format as m2
# B5: GLS3000 Q27R (antibody, name in Kabat numbering, V domains shown)
# VH: QVQLVESGGGVVQPGRSLRLSCAASGFTFSNAWMHWVRQAPGKGLEWVAQIKAKSNNYATYYAESVKGRFTISRDDSKNSLYLQMNSLKTEDTAVYYCRYVHYGAYYGVDAWGQGTTVTVSS
# VL: DIVMTQSPLSLPVTPGEPASISCRSSRSLVHSNRNTYLHWYQQKPGQAPRLLIYKVSNRFSGVPDRFSGSGSGTDFTLKISRVEAEDVGVYYCGQGTQVPYTFGQGTKLEIK
# notes: one-arm format as m2
# B6: GLS3000 P95G (antibody, name in Kabat numbering, V domains shown)
# VH: QVQLVESGGGVVQPGRSLRLSCAASGFTFSNAWMHWVRQAPGKGLEWVAQIKAKSNNYATYYAESVKGRFTISRDDSKNSLYLQMNSLKTEDTAVYYCRYVHYGAYYGVDAWGQGTTVTVSS
# VL: DIVMTQSPLSLPVTPGEPASISCRSSQSLVHSNRNTYLHWYQQKPGQAPRLLIYKVSNRFSGVPDRFSGSGSGTDFTLKISRVEAEDVGVYYCGQGTQVGYTFGQGTKLEIK
# notes: one-arm format as m2
# B7: GLS3000 P95E (antibody, name in Kabat numbering, V domains shown)
# VH: QVQLVESGGGVVQPGRSLRLSCAASGFTFSNAWMHWVRQAPGKGLEWVAQIKAKSNNYATYYAESVKGRFTISRDDSKNSLYLQMNSLKTEDTAVYYCRYVHYGAYYGVDAWGQGTTVTVSS
# VL: DIVMTQSPLSLPVTPGEPASISCRSSQSLVHSNRNTYLHWYQQKPGQAPRLLIYKVSNRFSGVPDRFSGSGSGTDFTLKISRVEAEDVGVYYCGQGTQVEYTFGQGTKLEIK
# notes: one-arm format as m2
# B8: GLS3000 Q27D (antibody, name in Kabat numbering, V domains shown)
# VH: QVQLVESGGGVVQPGRSLRLSCAASGFTFSNAWMHWVRQAPGKGLEWVAQIKAKSNNYATYYAESVKGRFTISRDDSKNSLYLQMNSLKTEDTAVYYCRYVHYGAYYGVDAWGQGTTVTVSS
# VL: DIVMTQSPLSLPVTPGEPASISCRSSDSLVHSNRNTYLHWYQQKPGQAPRLLIYKVSNRFSGVPDRFSGSGSGTDFTLKISRVEAEDVGVYYCGQGTQVPYTFGQGTKLEIK
# notes: one-arm format as m2
# B9: GLS3000 P95D (antibody, name in Kabat numbering, V domains shown)
# VH: QVQLVESGGGVVQPGRSLRLSCAASGFTFSNAWMHWVRQAPGKGLEWVAQIKAKSNNYATYYAESVKGRFTISRDDSKNSLYLQMNSLKTEDTAVYYCRYVHYGAYYGVDAWGQGTTVTVSS
# VL: DIVMTQSPLSLPVTPGEPASISCRSSQSLVHSNRNTYLHWYQQKPGQAPRLLIYKVSNRFSGVPDRFSGSGSGTDFTLKISRVEAEDVGVYYCGQGTQVDYTFGQGTKLEIK
# notes: one-arm format as m2
# B10: GLS3000 P95S (antibody, name in Kabat numbering, V domains shown)
# VH: QVQLVESGGGVVQPGRSLRLSCAASGFTFSNAWMHWVRQAPGKGLEWVAQIKAKSNNYATYYAESVKGRFTISRDDSKNSLYLQMNSLKTEDTAVYYCRYVHYGAYYGVDAWGQGTTVTVSS
# VL: DIVMTQSPLSLPVTPGEPASISCRSSQSLVHSNRNTYLHWYQQKPGQAPRLLIYKVSNRFSGVPDRFSGSGSGTDFTLKISRVEAEDVGVYYCGQGTQVSYTFGQGTKLEIK
# notes: one-arm format as m2
# B11: GLS3000 N53Y (antibody, name in Kabat numbering, V domains shown)
# VH: QVQLVESGGGVVQPGRSLRLSCAASGFTFSNAWMHWVRQAPGKGLEWVAQIKAKSNNYATYYAESVKGRFTISRDDSKNSLYLQMNSLKTEDTAVYYCRYVHYGAYYGVDAWGQGTTVTVSS
# VL: DIVMTQSPLSLPVTPGEPASISCRSSQSLVHSNRNTYLHWYQQKPGQAPRLLIYKVSYRFSGVPDRFSGSGSGTDFTLKISRVEAEDVGVYYCGQGTQVPYTFGQGTKLEIK
# notes: one-arm format as m2
# B12: GLS3000 Q90A (antibody, name in Kabat numbering, V domains shown)
# VH: QVQLVESGGGVVQPGRSLRLSCAASGFTFSNAWMHWVRQAPGKGLEWVAQIKAKSNNYATYYAESVKGRFTISRDDSKNSLYLQMNSLKTEDTAVYYCRYVHYGAYYGVDAWGQGTTVTVSS
# VL: DIVMTQSPLSLPVTPGEPASISCRSSQSLVHSNRNTYLHWYQQKPGQAPRLLIYKVSNRFSGVPDRFSGSGSGTDFTLKISRVEAEDVGVYYCGAGTQVPYTFGQGTKLEIK
# notes: one-arm format as m2
# B13: GLS3000 P95L (antibody, name in Kabat numbering, V domains shown)
# VH: QVQLVESGGGVVQPGRSLRLSCAASGFTFSNAWMHWVRQAPGKGLEWVAQIKAKSNNYATYYAESVKGRFTISRDDSKNSLYLQMNSLKTEDTAVYYCRYVHYGAYYGVDAWGQGTTVTVSS
# VL: DIVMTQSPLSLPVTPGEPASISCRSSQSLVHSNRNTYLHWYQQKPGQAPRLLIYKVSNRFSGVPDRFSGSGSGTDFTLKISRVEAEDVGVYYCGQGTQVLYTFGQGTKLEIK
# notes: one-arm format as m2
# B14: GLS3000 N53W (antibody, name in Kabat numbering, V domains shown)
# VH: QVQLVESGGGVVQPGRSLRLSCAASGFTFSNAWMHWVRQAPGKGLEWVAQIKAKSNNYATYYAESVKGRFTISRDDSKNSLYLQMNSLKTEDTAVYYCRYVHYGAYYGVDAWGQGTTVTVSS
# VL: DIVMTQSPLSLPVTPGEPASISCRSSQSLVHSNRNTYLHWYQQKPGQAPRLLIYKVSWRFSGVPDRFSGSGSGTDFTLKISRVEAEDVGVYYCGQGTQVPYTFGQGTKLEIK
# notes: one-arm format as m2
# B15: GLS3000 P95A (antibody, name in Kabat numbering, V domains shown)
# VH: QVQLVESGGGVVQPGRSLRLSCAASGFTFSNAWMHWVRQAPGKGLEWVAQIKAKSNNYATYYAESVKGRFTISRDDSKNSLYLQMNSLKTEDTAVYYCRYVHYGAYYGVDAWGQGTTVTVSS
# VL: DIVMTQSPLSLPVTPGEPASISCRSSQSLVHSNRNTYLHWYQQKPGQAPRLLIYKVSNRFSGVPDRFSGSGSGTDFTLKISRVEAEDVGVYYCGQGTQVAYTFGQGTKLEIK
# notes: one-arm format as m2
# Biological target: CD3ε homodimer protein (human, UniProt P07766 23-126, limits assumed)
# Sequence (P07766 23-126 limits assumed): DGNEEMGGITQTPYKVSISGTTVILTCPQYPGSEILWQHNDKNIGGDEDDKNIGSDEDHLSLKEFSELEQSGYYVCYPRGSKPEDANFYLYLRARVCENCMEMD
# Assay: SPR, immobilized CD3ε homodimer;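 also: biacore T200 surface plasmon resonance at 25 °C, antibody variants flowed as analytes over amine-coupled CD3ε homodimer on a CM4 chip, variant binding amount divided by that of GLS3000 antibody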
row,Binder,ratio of amounts bound (vs GLS3000)
1,B1,0.56
2,B2,0.29
3,B3,0.92
4,B4,0.88
5,B5,1.19
6,B6,0.37
7,B7,0.39
8,B8,0.85
9,B9,0.24
10,B10,0.43
11,B11,0.67
12,B12,0.5
13,B13,0.24
14,B14,0.81
15,B15,0.63
